Target: T1, ubiquitin propargylamide (UB-PA) (UniProt P0CG48 1-75, C-terminal propargylamide)
T1 construct: also called ubiquitin-propargylamide suicide probe
Experiment: NMR chemical shift perturbation of the covalent adduct against the apo protein
Details: both partners purified

B1: Cdu1(130-401), wildtype (enzyme)
chain: PVKTQEDLLPLVPEQVFVEMYEDMARRQTIEALVPAWDSDIIFKCLCYFHTLYPGLIPLETFPPATIFNFKQKIISILEDKKAVLRGEPIKGPLPICCSKENYRRHLQRTTLLPVFMWYHPTPKTLSDTMQTMKQLAIKGSVGASHWLLVIVDIQARRLVYFDSLYNYVMPPENMKKELQSFAQQLDQVYPAYDSKKFSVKIAAKEVIQRGSGSSCGAWCCQFLHWYLKDPLTDALNDLPVDSVERHENLASFVQACEAAVQDLPELSWPEA
notes: source: E. coli Rosetta 2(DE3), purified (Ni-NTA, 3C cleavage, SEC); not shown: 6xHis, N-terminal, cleaved
  binding result: binds

From PMC11527256, “Linkage-specific ubiquitin binding interfaces modulate the activity of the chlamydial deubiquitinase Cdu1 towards poly-ubiquitin substrates” (PLOS Pathogens, 2024)
